Laboratory results: patent US20200129630A1, “METHODS FOR TREATING CANCER” (BicycleRD Limited, priority 2018, published 2020)
Several values for one entry are separate records, joined by “and”; a condition that tells them apart may be missing. Equal entries are not always repeated. Numbered stars: 1 amine (or outer) side, 2 acyl side, 3 side chain; on linkers, the order of the positions; unused ones are H or OH. Bridge positions count the residues as written; N and C are the ends. Square brackets hold non-standard residues; d marks the D form. Peptide text beside a SMILES is read from it. * marks the point of attachment. X1 = COc1cc2cc(c1Cl)N(C)C(=O)C[C@H](OC(=O)[C@H](C)N(C)C(=O)CCSSC(C)CCC(=O)*)[C@]1(C)O[C@H]1[C@H](C)[C@@H]1C[C@@](O)(NC(=O)O1)[C@H](OC)/C=C/C=C(\C)C2; 1Nal = N[C@@H](Cc1cccc2ccccc12)C(=O)O; TBMB = c1c(C[*:1])cc(C[*:3])cc1C[*:2]; Tle = CC(C)(C)[C@H](N)C(=O)O; βAla = NCCC(=O)O; Sar = CNCC(=O)O

What was measured:
[1] = Stability in plasma in vitro, rat; format: in vitro ADME; conditions: 37° C.
Procedure: (§1) The stability of BT1718 was assessed in plasma and whole blood from humans, monkey, dog, mouse and rat. […] The mechanism for the difference in stability of the BT1718 peptide in whole blood between the different species is unknown.

[2] = Stability in whole blood in vitro, monkey; format: in vitro ADME; conditions: 37° C.
Procedure: as §1

[3] = Plasma protein binding, dog; format: in vitro ADME; conditions: read-out: free fraction
Procedure: (§2) Plasma protein binding of BT1718 was also assessed. The mean plasma protein binding of the BT1718 peptide ranged from 87% to 98%, with the free fraction of BT1718 being 13% in human, 2.6% in rats, 7.5% in mice, 3.8% in monkey and 1.5% in dog plasma, the results had no correlation to the plasma and whole blood stability data. […] Plasma protein binding of unconjugated DM1, has previously been reported, with the unbound fraction being 7% in human and monkey and 3% in rat.

[4] = Distribution into blood cells; format: in vitro ADME; conditions: comparable across human and all preclinical species tested
[5] = Sprague Dawley rat PK study; format: in vivo; conditions: plasma, 15 mg/m2, male, 15 mg/m^2 IV
[6] = Non-GLP toxicity studies, mouse; format: in vivo
Excerpt: (§3) These include in vitro tissue microarray in human, rat and monkey tissues and in vitro and in vivo assessment of immunogenicity. In vivo assessments include single dose toxicity in mice and rats, multiple dose range finding studies in mice, rats, dogs and monkeys (non-GLP) and GLP-compliant multiple dose studies in rats and monkeys consisting of 28-day on study phase with a 28-day recovery period.

[7] = Non-GLP toxicity studies, monkey; format: in vivo, monkeys
Excerpt: as §3

[8] = Plasma protein binding, monkey; format: in vitro ADME; conditions: read-out: free fraction
Procedure: as §2

[9] = Stability in whole blood in vitro, human; format: in vitro ADME; conditions: 37° C.
Procedure: as §1

[10] = Clinical pharmacokinetics of BT1718, 1 h intravenous infusion; format: in vivo, patients; conditions: for clearance / half-life / Vd: human, plasma
Excerpt: Intact BT1718 and total DM1 (DM1 in BT1718, any peptidyl-DM1 metabolites of BT1718, and other DM1-containing mixed disulfides and free DM1) will be measured in plasma according to agreed standard operating procedures (SOPs) and validated methods in Phase I, dose escalation phase (Stage 1 and 2) and potentially in Phase IIa, expansion phase (Parts A and B), dependent on emerging data.
The plasma concentration/time data will be analyzed using non-compartmental methods. The PK parameters to be determined for intact BT1718 include Cmax, Tmax, AUC, t1/2, total body clearance (CLT) and Vdss. The PK parameters to be determined for total DM1 include Cmax, Tmax, AUC and t1/2.
The preliminary clinical pharmacokinetic data for BT1718 following a 1 hour intravenous infusion to patients are shown in Table 13 below.

[11] = nu/nu BALB/c mouse PK study; format: in vivo; conditions: plasma, 15 mg/m2, 15 mg/m^2 IV
HT-1080 = assay: In vitro cytotoxicity (CellTiter-Glo) HT-1080; format: cell-based; conditions: HT-1080, Fibrosarcoma
Excerpt: Table 1 and Table 2 Notes: in general regression and stable disease correlated with the in vitro cytotoxicity and MT1-MMP expression. Female BALB/c mice n=3/group animals dosed twice per week except EBC-1 three per week. Tumor growth inhibition (TGI) (%)=[1−(Ti−T0)/(Vi−V0)]×100; Ti is the average tumor volume of a treatment group on a given day, TO is the average tumor volume of the treatment group on the day of treatment start, Vi is the average tumor volume of vehicle control group on the same day with Ti, and V0 is the average tumor volume of vehicle group on the day of treatment start. A one-way ANOVA was performed to compare tumor volume among groups, and when a significant F-statistics (a ratio of treatment variance to the error variance) was obtained, comparisons between groups were carried out with Games-Howell test. All data were analyzed using GraphPad Prism.* p<0.05, ** p<0.01, *** p<0.001. In vitro cytotoxicity was measured by CellTiter-Glo®, MT1-MMP membrane H score from immunohistochemistry staining, NM not measured. Tumor size on Day 1 of dosing.

[12] = Non-GLP toxicity studies, dog; format: in vivo
Excerpt: as §3

[13] = Plasma protein binding, human; format: in vitro ADME
Procedure: as §2

[14] = Total DM1 in plasma and urine / excretion (preclinical); format: in vivo
Procedure: Efficacy in this model was reduced in the conjugates containing the least cleavable linkers. […] Effective treatment was also seen with same total dose, given at on schedules from daily to a single weekly dose.
The concentration of total DM1 in plasma and urine was also measured following a reduction step, to detect DM1 in BT1718, any peptidyl-DM1 metabolites of BT1718, other DM1-containing mixed disulfides and free DM1. The level of total DM1 in plasma and urine increased with increasing dose, with about 85% of the total DM1 recovered in urine within 48 hours of BT1718 administration. […] An assay for free DM1 has not been successfully developed due to the instability of the free thiol in biological matrices.

[15] = 9.6 mg/m^2, 1 h IV infusion, individual patients
[16] = dogs 1 mg/kg, 20 mg/m^2 twice weekly

Q: With COc1cc2cc(c1Cl)N(C)C(=O)C[C@H](OC(=O)[C@H](C)N(C)C(=O)CCSSC(C)CCC(=O)NCCC(=O)N(C)CC(=O)N(C)CC(=O)N(C)CC(=O)N(C)CC(=O)N(C)CC(=O)N(C)CC(=O)N(C)CC(=O)N(C)CC(=O)N(C)CC(=O)N(C)CC(=O)N[C@@H](C)C(=O)N[C@H]1CSCc3cc4cc(c3)CSC[C@H](NC(=O)[C@@H](C)NC(=O)[C@H](Cc3cccc5ccccc35)NC(=O)[C@H](CCC(=O)O)NC(=O)[C@H](CC(N)=O)NC(=O)[C@@H](C)NC1=O)C(=O)N[C@@H](CCC(=O)O)C(=O)N[C@@H](CC(=O)O)C(=O)N[C@@H](Cc1ccccc1)C(=O)N[C@@H](Cc1ccc(O)cc1)C(=O)N[C@@H](CC(=O)O)C(=O)N[C@@H](C(C)(C)C)C(=O)N[C@H](C(N)=O)CSC4)[C@]1(C)O[C@H]1[C@H](C)[C@@H]1C[C@@](O)(NC(=O)O1)[C@H](OC)/C=C/C=C(\C)C2 (stereo partly shown) [BT1718] ({X1-βAla}-[Sar][Sar][Sar][Sar][Sar][Sar][Sar][Sar][Sar][Sar]AC[dA]NE[1Nal][dA]CEDFYD[Tle]C-NH2; linker 12-18-25 via TBMB (inferred)) as the compound, how does the half-life [1] read?
A: > 360 min

Q: What about the half-life [2] of the same compound?
A: 120 to 240 min

Q: And the fraction unbound [3]?
A: 0.015

Q: What about the “distribution into blood cells” value [4] of the same compound?
A: limited distribution into blood cells

Q: What about the AUC [5] of the same compound?
A: 1500 ± 200 nM·h

Q: What about the clearance [5] of the same compound?
A: 0.564 ± 0.066 L/h/kg

Q: And the half-life [5]?
A: 33.6 ± 6.6 min

Q: What about the Cmax ([5]; read-out: C0/Cmax) of the same compound?
A: 4.2 ± 1.1 µM

Q: What about the Vd ([5]; read-out: Vdss) of the same compound?
A: 0.29 ± 0.03 L/kg

Q: And the GI findings ([6]; mice, single dose of 13.4 mg/kg (40.2 mg/m^2))?
A: intestinal mucosal mitosis

Q: What about the renal findings ([6]; mouse 3.3 mg/kg, 10 mg/m^2 three times weekly) of the same compound?
A: Moderate renal tubule degeneration and epithelial mitosis

Q: And the peripheral haematology ([7]; monkeys 2 mg/kg, 24 mg/m^2 once weekly)?
A: significant decreases in WBCs

Q: What about the GI findings ([7]; monkeys, single 3 mg/kg (36 mg/m^2) one week post 1.5 mg/kg dose) of the same compound?
A: mild single cell necrosis of the glandular epithelial cells in the caecum

Q: What about the fraction unbound [8] of the same compound?
A: 0.038

Q: What about the half-life [9] of the same compound?
A: 120 to 240 min

Q: What about the CLp [10, 15] of the same compound?
A: 0.264 L/h/kg and 0.612 L/h/kg

Q: What about the Vss [10, 15] of the same compound?
A: 0.18 L/kg

Q: And the t½ [10, 15]?
A: 17 min and 14 min

Q: And the clearance ([10]; intravenous, Data for all patients, read-out: CLp)?
A: 0.6 L/h/kg

Q: What about the half-life ([10]; intravenous, Data for all patients, read-out: t½) of the same compound?
A: 18 min

Q: What about the clearance ([10]; intravenous, Data for cycle 1 only, read-out: CLp) of the same compound?
A: 0.72 L/h/kg

Q: And the half-life ([10]; intravenous, Data for cycle 1 only, read-out: t½)?
A: 18 min

Q: What about the clearance ([10]; intravenous, patients, read-out: Mean (±SD) plasma clearance (CLp) (converted)) of the same compound?
A: 538 mL/min

Q: What about the Vd ([10]; intravenous, patients, read-out: mean (±SD) volume of distribution (Vss)) of the same compound?
A: 22.9 L

Q: And the half-life ([10]; intravenous, patients, read-out: terminal half-life (t½))?
A: 12 to 60 min

Q: What about the clearance ([10]; iv, 1.2 mg/m^2, 1.2 mg/m^2, 1 h IV infusion, individual patient, read-out: CLp) of the same compound?
A: 0.75 L/h/kg

Q: What about the Vd ([10]; iv, 1.2 mg/m^2, 1.2 mg/m^2, 1 h IV infusion, individual patient, read-out: Vss) of the same compound?
A: 0.23 L/kg

Q: What about the half-life ([10]; iv, 1.2 mg/m^2, 1.2 mg/m^2, 1 h IV infusion, individual patient, read-out: t½) of the same compound?
A: 6 min

Q: What about the clearance ([10]; iv, 2.4 mg/m^2, 2.4 mg/m^2, 1 h IV infusion, individual patient, read-out: CLp) of the same compound?
A: 1.1 L/h/kg

Q: And the Vd ([10]; iv, 2.4 mg/m^2, 2.4 mg/m^2, 1 h IV infusion, individual patient, read-out: Vss)?
A: 0.3 L/kg

Q: And the half-life ([10]; iv, 2.4 mg/m^2, 2.4 mg/m^2, 1 h IV infusion, individual patient, read-out: t½)?
A: 6 min

Q: What about the clearance ([10]; iv, 4.8 mg/m^2, 4.8 mg/m^2, 1 h IV infusion, individual patient, read-out: CLp) of the same compound?
A: 0.798 L/h/kg

Q: And the Vd ([10]; iv, 4.8 mg/m^2, 4.8 mg/m^2, 1 h IV infusion, individual patient, read-out: Vss)?
A: 0.19 L/kg

Q: And the half-life ([10]; iv, 4.8 mg/m^2, 4.8 mg/m^2, 1 h IV infusion, individual patient, read-out: t½)?
A: 10 min

Q: What about the Vd ([10]; iv, 9.6 mg/m^2, 9.6 mg/m^2, 1 h IV infusion, individual patients, read-out: Vss) of the same compound?
A: 0.15 L/kg

Q: What about the half-life ([10]; iv, 9.6 mg/m^2, 9.6 mg/m^2, 1 h IV infusion, individual patients, read-out: t½) of the same compound?
A: 16 min

Q: What about the AUC vs dose ([10]; over the range 0.6-25 mg/m2) of the same compound?
A: approximately dose proportional

Q: What about the AUC [11] of the same compound?
A: 1700 ± 300 nM·h

Q: And the clearance [11]?
A: 0.636 ± 0.09 L/h/kg

Q: And the half-life [11]?
A: 25.8 ± 2.4 min

Q: What about the Cmax ([11]; read-out: C0/Cmax) of the same compound?
A: 5.8 ± 0.94 µM

Q: And the Vd ([11]; read-out: Vdss)?
A: 0.26 ± 0.08 L/kg

Q: And the IC50 (HT-1080)?
A: 4.3 nM

Q: And the GI findings ([12]; dog 1 mg/kg (20 mg/m^2) twice weekly)?
A: Slight to moderate small intestinal degeneration

Q: And the bladder findings ([12]; dog, 14 mg/m^2 twice weekly)?
A: Bladder epithelial degeneration

Q: What about the hepatic findings [12, 16] of the same compound?
A: Elevated liver enzymes

Q: And the peripheral haematology [12, 16]?
A: significant decreases in WBCs

Q: And the renal findings [12, 16]?
A: Moderate renal tubule degeneration and epithelial mitosis

Q: And the fraction unbound ([13]; human plasma, read-out: free fraction)?
A: 0.13

Q: What about the fraction unbound ([13]; range across human, rat, mouse, monkey and dog plasma, read-out: mean plasma protein binding) of the same compound?
A: 0.02 to 0.13

Q: What about the route of excretion ([14]; preliminary metabolism studies) of the same compound?
A: excreted mainly through the kidney in urine

Q: And the “total DM1 recovered in urine” value ([14]; within 48 hours of BT1718 administration)?
A: about 85%
